# From the supplement of paper PMC7125110
# ± gives the standard error. For part of these data: Variants at the floor of the assay were thinned out.
# B1: glmS ribozyme (parent)
# chain: AUAAAAGCGCCAGAACUACAGAAAUGUAGUUGACGAGGAGGAGGUUUAUCGAAUUUUCGGCGGAUGCCUCCAAA
# Assays:
# Conditions in all cases: with glucosamine-6-phosphate
# glucosamine-6-phosphate [1] = variants of: B1; assay: kcat; higher = faster cleavage; RNA array
# Summary of the method: (§1)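 Barcoded glmS ribozyme variants on sequenced MiSeq chips were transcribed in situ by E. coli RNA polymerase and tracked through a hybridised Cy3 probe at 37 °C. Glucosamine-6-phosphate (40 μM to 10 mM) in HEPES/KCl/Mg(OAc)2 buffer was flowed in, and tiles were imaged over ~14 h. Signals were normalised to baseline and to non-cleaving reference variants; per-tile medians were fit to one- or two-exponential decays to give kobs. kcat and KM came from weighted Michaelis–Menten fits across concentrations.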
# glucosamine-6-phosphate [2] = variants of: B1; assay: self-cleavage kobs at 40 uM GlcN6P; higher = faster cleavage; RNA array
# Summary of the method: as §1
# glucosamine-6-phosphate [3] = variants of: B1; assay: self-cleavage kobs at 160 uM GlcN6P; higher = faster cleavage; RNA array
# Summary of the method: as §1
# glucosamine-6-phosphate [4] = variants of: B1; assay: self-cleavage kobs at 640 uM GlcN6P; higher = faster cleavage; RNA array
# Summary of the method: as §1
# glucosamine-6-phosphate [5] = variants of: B1; assay: self-cleavage kobs at 2500 uM GlcN6P; higher = faster cleavage; RNA array
# Summary of the method: as §1
# glucosamine-6-phosphate [6] = variants of: B1; assay: self-cleavage kobs at 10000 uM GlcN6P; higher = faster cleavage; RNA array
# Summary of the method: as §1
# glucosamine-6-phosphate [7] = variants of: B1; assay: KM; higher = weaker cofactor use; RNA array
# Summary of the method: as §1
Variant,kcat (glucosamine-6-phosphate [1]) [s⁻¹],self-cleavage kobs at 40 uM GlcN6P (glucosamine-6-phosphate [2]) [s⁻¹],self-cleavage kobs at 160 uM GlcN6P (glucosamine-6-phosphate [3]) [s⁻¹],self-cleavage kobs at 640 uM GlcN6P (glucosamine-6-phosphate [4]) [s⁻¹],self-cleavage kobs at 2500 uM GlcN6P (glucosamine-6-phosphate [5]) [s⁻¹],self-cleavage kobs at 10000 uM GlcN6P (glucosamine-6-phosphate [6]) [s⁻¹],KM (glucosamine-6-phosphate [7]) [µM]
G40U A53G,0.00428 ± 0.0018,0.00024 ± 5.5e-05,0.000703 ± 0.0002,0.00118 ± 0.00028,0.00316 ± 0.00063,0.0062 ± 0.0017,
A36G C67A,< 1e-05,,,,,,
A48U U55A U56C,4.34e-05 ± 3.5e-06,,,,3.8e-05 ± 1.3e-05,4.04e-05 ± 1e-05,
C16G U56C,0.000431 ± 6.4e-05,,,,0.000276 ± 4.5e-05,0.000354 ± 3.8e-05,
U31A G40C,0.00121 ± 0.00017,3.09e-05 ± 7.3e-06,0.000105 ± 3e-05,0.00048 ± 0.0001,0.00115 ± 0.00024,0.00101 ± 0.00011,1410 ± 380
G66C C67G,2.61e-05 ± 7.8e-06,,,2.84e-05 ± 1.3e-05,,,
C10G G62C,< 1e-05,,,,,,
A12U U31G U47C,0.000915 ± 0.00036,,,0.000923 ± 0.00024,0.00136 ± 0.00036,0.000748 ± 0.00013,
U65A C71G,0.000477 ± 0.00013,,4.31e-05 ± 1.1e-05,0.000124 ± 1.6e-05,0.000382 ± 9.3e-05,0.000383 ± 8.9e-05,1710 ± 720
A12G A42U A53C,< 1e-05,< 1e-05,,,,,
A14U G40C,0.000633 ± 5.1e-05,2.05e-05 ± 9e-06,5.2e-05 ± 9.2e-06,0.000142 ± 1.5e-05,0.000391 ± 4.2e-05,0.000522 ± 3.7e-05,1980 ± 320
A15C U46C,0.000304 ± 5.3e-05,,,0.000119 ± 1.9e-05,0.000176 ± 2.5e-05,0.000295 ± 4.8e-05,1330 ± 520
A36U A64C,< 1e-05,< 1e-05,< 1e-05,,< 1e-05,< 1e-05,
C58G C67G C70G,5.76e-05 ± 2.6e-05,,,6.3e-05 ± 2.3e-05,8.09e-05 ± 3e-05,,
G13A G41U,5.73e-05 ± 8.7e-06,< 1e-05,,,,,
U47C C50G,< 1e-05,,,< 1e-05,,,
G40A G66A,0.00833 ± 0.0037,0.000144 ± 2e-05,0.000201 ± 8.8e-05,0.00165 ± 0.00041,,0.00641 ± 0.00098,
A15G G43A,8.91e-05 ± 1.1e-05,< 1e-05,,,4.89e-05 ± 1.5e-05,7.17e-05 ± 1.4e-05,2300 ± 940
U49G U69A,4.14e-05 ± 1.7e-05,,,,8.22e-05 ± 2.2e-05,,
G13C A14C U45A,0.000417 ± 0.00017,,,,0.000212 ± 4.3e-05,0.000262 ± 5.6e-05,
C16A G51A U56G C68G,1.58e-05 ± 2.3e-06,,,,,,

Variant,kcat (glucosamine-6-phosphate [1]) [s⁻¹],self-cleavage kobs at 40 uM GlcN6P (glucosamine-6-phosphate [2]) [s⁻¹],self-cleavage kobs at 160 uM GlcN6P (glucosamine-6-phosphate [3]) [s⁻¹],self-cleavage kobs at 640 uM GlcN6P (glucosamine-6-phosphate [4]) [s⁻¹],self-cleavage kobs at 2500 uM GlcN6P (glucosamine-6-phosphate [5]) [s⁻¹],self-cleavage kobs at 10000 uM GlcN6P (glucosamine-6-phosphate [6]) [s⁻¹],KM (glucosamine-6-phosphate [7]) [µM]
A15C U30C A52G G63C,< 1e-05,,,,,,
A12U G29U G59U C68G C70A,3.34e-05 ± 1.4e-05,,,4.93e-05 ± 2.3e-05,,,
C50G G62C,2.62e-05 ± 7.9e-06,,,,,,
C16G U45G,0.000908 ± 7.3e-05,,4.29e-05 ± 1.9e-05,0.000199 ± 3.8e-05,0.000466 ± 0.00011,0.000718 ± 9.7e-05,2510 ± 380
A33U C61U,< 1e-05,,,< 1e-05,,,
G51A C71A,1.9e-05 ± 9e-07,,,,,,105 ± 32
G38A C58U C68G,4.92e-05 ± 1.7e-05,,,5.5e-05 ± 2.5e-05,6.16e-05 ± 2.5e-05,,
A6U A23C U30G,5.38e-05 ± 1.9e-06,,,,,4.19e-05 ± 1.6e-05,2780 ± 300
U54A U57C,0.000159 ± 5.5e-06,,,3.98e-05 ± 1e-05,8.52e-05 ± 1.3e-05,0.000134 ± 2.1e-05,2020 ± 160
A14C G66C,9.53e-05 ± 3.1e-06,,,,5.12e-05 ± 1.5e-05,7.85e-05 ± 9.8e-06,2140 ± 260
A6U A39G,0.000267 ± 2.8e-05,,,,9.44e-05 ± 1.8e-05,0.000175 ± 2.6e-05,5030 ± 1100
U57G C68A,2.56e-05 ± 8.2e-06,,,3.37e-05 ± 1.4e-05,,,
A64G U69A,8.09e-05 ± 8.7e-06,< 1e-05,,3.36e-05 ± 1.6e-05,4.75e-05 ± 1.6e-05,7.42e-05 ± 1.3e-05,1230 ± 510
A15C U56C,0.00118 ± 0.00019,,8.66e-05 ± 1.7e-05,0.000202 ± 3.2e-05,0.000708 ± 9.2e-05,0.000914 ± 9.9e-05,2470 ± 690
G40C G66A,0.00247 ± 0.00097,9.75e-05 ± 2.1e-05,0.000162 ± 4.5e-05,0.00111 ± 0.0003,0.00108 ± 0.00021,0.00269 ± 0.0004,
G51U C71G,1.29e-05 ± 2.7e-06,,,,,,
A42U A53U,0.000105 ± 1.1e-05,,,,8.5e-05 ± 1.5e-05,9.14e-05 ± 8.2e-06,
G38A C70A,< 1e-05,< 1e-05,,,,,
U65G C70A,0.000185 ± 1.6e-05,,,7.93e-05 ± 1.6e-05,0.000183 ± 6.7e-05,0.000167 ± 2.7e-05,825 ± 210
A14C A15U,0.000353 ± 2.4e-05,,,5.17e-05 ± 6.8e-06,0.000148 ± 1.9e-05,0.000256 ± 3.6e-05,3640 ± 380
